Data as given in patent US20100143438A1, “BIOMOLECULES” (University of Strathclyde, priority 2006, published 2010).

Test system: Fmoc-FRGD-PEGA surface tethered peptide (Fmoc-F↓RGD bond)
Experiment: Enzymatic hydrolysis of PEGA surface tethered peptides analysed by HPLC
Type: biochemical
Conditions: for Fmoc-F-OH (%) / Fmoc-FR-OH (%): 37° C., 2 hours in enzyme solution, 100% = 4.08 nmol maximum Fmoc-peptide hydrolysed, n=9; for cleavage and selectivity for Fmoc-F↓RGD versus Fmoc-FR↓GD: HPLC
Procedure: Three proteolytic enzymes, chymotrypsin, thermolysin and proteinase K, that are known to cleave peptide bonds involving F amino acids in the P1 position were tested for their ability to selectively hydrolyse Fmoc-F↓RGD bond^15. […] Surfaces were incubated at 37° C. for 2 hours in enzyme solution (concentrations and activities are shown in Table 1) in phosphate buffer and the cleaved products were analysed by HPLC.
Surfaces were rinsed in a known volume (at least 4 ml) of a 50:50 mixture of acetonitrile (ACN) and water. The rinsing solution was kept and added to the enzyme solution that the surface was in. 1 ml of this solution was placed into an HPLC autosampler vial. The HPLC machine (manufactured by Dionex; California, USA) consisted of a P.680 HPLC pump joined to an ASI-100 Automated Sample Injector with a Dionex UVD17OU detector. The column was an EC 250/4.6 Nucleosil 100-5 C18, with an internal diameter of 4.6 mm and a column length of 250 mm containing particles of 5 μm in diameter. 100 μl was injected into the HPLC column at the start of each run and a buffer gradient run through the column, buffer A was 99.9% water and 0.1% TFA, buffer B was 99.9% ACN and 0.1% TFA. For quantification, three samples of each surface were produced and repeated three times.

Row | Molecule | Fmoc-F-OH (%) | Fmoc-FR-OH (%) | cleavage and selectivity for Fmoc-F↓RGD versus Fmoc-FR↓GD | maximum amount of Fmoc-peptide cleaved from the surface (determined by HPLC)
1 | Proteinase K: proteolytic enzyme cleaving peptide bonds with F in P1 position (protein, UniProt P06873 106-384, looked up) Proteinase K: AAQTNAPWGLARISSTSPGTSTYYYDESAGQGSCVYVIDTGIEASHPEFEGRAQMVKTYYYSSRDGNGHGTHCAGTVGSRTYGVAKKTQLFGVKVLDDNGSGQYSTIIAGMDFVASDKNNRNCPKGVVASLSLGGGYSSSVNSAAARLQSSGVMVAVAAGNNNADARNYSPASEPSVCTVGASDRYDRRSSFSNYGSVLDIFGPGTSILSTWIGGSTRSISGTSMATPHVAGLAAYLMTLGKTTAASACRYIADTANKGDLSNIPFGTVNLLAYNNYQA | 60 ± 3.0% | 40 ± 8.0% | highest cleavage but poor selectivity | 4.08 nmol
2 | Thermolysin: proteolytic enzyme (metalloprotease) (protein, UniProt P00800 233-548, looked up) Thermolysin: ITGTSTVGVGRGVLGDQKNINTTYSTYYYLQDNTRGNGIFTYDAKYRTTLPGSLWADADNQFFASYDAPAVDAHYYAGVTYDYYKNVHNRLSYDGNNAAIRSSVHYSQGYNNAFWNGSQMVYGDGDGQTFIPLSGGIDVVAHELTHAVTDYTAGLIYQNESGAINEAISDIFGTLVEFYANKNPDWEIGEDVYTPGISGDSLRSMSDPAKYGDPDHYSKRYTGTQDNGGVHINSGIINKAAYLISQGGTHYGVSVVGIGRDKLGKIFYRALTQYLTPTSNFSQLRAAAVQSATDLYGSTSQEVASVKQAFDAVGVK | 40 ± 2.4% | 27 ± 3.5% | poor selectivity | –
